Patent publication US20110112012A1 (UNIVERSITY OF GEORGIA STUDIES RESEARCH FOUNDATION, published 2011)

T1: Cry4Ba toxin (Cry4BRA mutant, R203 replaced by A) of Bacillus thuringiensis israelensis (Bacillus thuringiensis israelensis, UniProt P05519 51-641)
T1 construct: domain: ~66 kDa toxin mosquitocidal fragment; also called labeled Cry4Ba
T1 sequence: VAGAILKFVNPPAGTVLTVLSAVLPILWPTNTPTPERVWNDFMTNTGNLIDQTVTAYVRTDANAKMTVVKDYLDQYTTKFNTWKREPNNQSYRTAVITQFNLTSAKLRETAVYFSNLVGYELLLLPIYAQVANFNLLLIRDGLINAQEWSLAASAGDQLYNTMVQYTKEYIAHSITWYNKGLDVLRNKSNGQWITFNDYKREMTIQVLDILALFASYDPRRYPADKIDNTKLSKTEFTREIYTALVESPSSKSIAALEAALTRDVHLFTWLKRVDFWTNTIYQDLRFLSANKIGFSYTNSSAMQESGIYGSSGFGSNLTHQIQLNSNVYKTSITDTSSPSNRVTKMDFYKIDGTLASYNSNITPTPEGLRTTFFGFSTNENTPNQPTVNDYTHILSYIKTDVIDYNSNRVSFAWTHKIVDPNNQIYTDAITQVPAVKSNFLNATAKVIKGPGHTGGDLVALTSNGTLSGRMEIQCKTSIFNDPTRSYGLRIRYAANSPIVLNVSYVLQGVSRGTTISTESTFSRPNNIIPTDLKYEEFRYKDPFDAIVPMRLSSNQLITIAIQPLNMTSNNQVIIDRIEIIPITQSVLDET


Target: T1, Cry4Ba toxin (Cry4BRA mutant, R203 …)
Assay: microplate ELISA, Cry4Ba coated, biotinylated fragment titrated, one site saturation fit

Binder	Kd
CR9-11 fragment of AgCad1, expressed in E. coli (Biotinylated for the microplate assay; also called AgCad CR9-11; AgCad-CR9-11) GSPLPKFEAIDDDGGIYGDVTFSLTSTNDGEQDHEVFRVDKVDNKTGLLVLENSLAVQPFPKNYSITVIARDGGDRQSEAAIHVVFINMTGEPAFLEPTFDTDFTENEEGRDERRQLPFAEDPKNAGLPPGAETNVYYFIDKTYGNASHLFQLDRVSNVLQLAQLLDREEIPTPEIRIVATNNENSPPDTVLESSPSLLVVRIKVNDVNDNPPVFQQRLYAAGITTNDRVPKALFRVYAEDPDEDEIIRYELVNGTAVGENLQTDGLPFRLHPDSGELTLTSKVQPNQNGYYQLTLIAFDRDDTHNDTVPAKVYIVSESNRVTFVF	173 nM
CR11-MPED peptide of AgCad1 (amino acids 1358G to 1569A), expressed in E. coli (Biotinylated with sulfo-NHS-PC-biotin for the microplate assay; also called AgCad CR11-MPED; AgCad-CR11-MPED) GITTNDRVPKALFRVYAEDPDEDEIIRYELVNGTAVGENLQTDGLPFRLHPDSGELTLTSKVQPNQNGYYQLTLIAFDRDDTHNDTVPAKVYIVSESNRVTFVFLNSVEEIDQPDVRKFLAQELTGAYEMECNIDDIDQTTASDGRQAGGSSSALTDVRTHFIQDNQAVEASRIQQRSSNRTFVTVLKTTLRTRGLSLQDVPPLATEALTEA	393 nM
